Assay: yeast display, Sf9 membrane polyspecificity reagent, FACS + sequencing; frameworks hold sequencing errors
Outline: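 After 36–48 hours of galactose induction, yeast (Saccharomyces cerevisiae BJ5465) displaying a synthetic nanobody library were stained at 4 °C for 1 hour with 10% biotinylated, detergent-solubilized Sf9 membrane reagent. Streptavidin microbeads enriched the stained cells before FACS sorting into low and high (top ~1%) gates on anti-HA and streptavidin fluorescence. Each clone's polyreactivity label reflects its gate of origin.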

| Sequence | polyreactivity (PSR sort gate) |
| --- | --- |
| QVQLVESGGGLVQTGGSLRISCAASGSTFYYYAIGWYRQAAGKERELVAGISWGGGSTYYEDSVKGRFTISRDNAKNTVYLQMNSLKPEDTAVYYCNALNPKSYDYWGHGTQVTVSS | low polyreactivity |
| QVQLVESGGGLVQTGGSLRLSCASSGRIFFDNAMGWYSQAPGKERELVAGIDSGGSTYYADSVKGRFSISRDNAKNTVYLQMNRLKPEDTAVYYCNADYPPSTQSPLLQSYDYWGHGTQVTVSS | low polyreactivity |
| QVQLVESGGGLVQVGGSLRLSCAASGFTFLGYAMGWYRQAPGKEREMVAAITTGGGSTYYAVSVKGRFTISRDNATTTVYLQMNSLKPEDTAVYYCAARRNVRPRYGYWGQGTQVTVSS | high polyreactivity |
| QVQLVESGGGLVQVGGSLRLSCAASGLTFYANAMGWYRQAPGKEREVVAAIRKRGGSTYYADSVKGRFTISRDNAKNTVYFQMNSLKPEDTAVYYGATYGGPFSVGTGFHDVRYDYWGHGTQVTVSS | low polyreactivity |
| QVQLVESGGGLVQVGGSLRLSCAASGSILTDYGMGWNRPAPGKERELVAVIDFSSGSTYYADSVKGRFTISRDNAKNTVYLQMNSLKPEDTAVYYCAAGPDPLGEDYWGQGTQVTVSS | low polyreactivity |
| QVQLVESGGGLVRAGGSLRLSCAASGSTFGENAMGWYRQAPGKERELVAAISDSGGDTYYADSVKGRFTISRDNAKNTVYLQMNSLKPEDTAVYYCAADRYGYWYAYYSWGQGTQVTVSS | low polyreactivity |
| QVQLVESGGGLVRAGGSLRLSCAASGSTFRQYAMGWYRQAPGKERDLVAAINWSGSSTYYADSVKGRFTISRDNAKNTVYLQMNSLKPEATAVYYCAARRVLATFQHSNSHYYWGQGTQVTVSS | high polyreactivity |
| QVQLVESGGGLYQAGGSLRLSCAASGRIFYCYAMGSYRQAPGKERELVAAISWRGGRTYYADSVKGRFTISRDNAKNTVYLQMNSLIPEDTAVYYCNTDFPPQGQLRNMSYWGQGTQVTVSS | high polyreactivity |
| QVQLVESGGGSVQAGGRLRLSCAASGSIFGQYAMGWYRQAPGKERELVAAISDTDSTNYADSVKGRFTISRDNAKNTVYLQMNSLKPEDTAVYYCNADTWGYRLGYYYYKFDYWGQGTQVTVSS | low polyreactivity |
| QVQLVESGGGSVQAGGSLRISCAASGSIFSLYAMGWYRQAPGKERELVASISSDGSTYYADSVKGRFTISRDNAKNTVYLQMNSLKPEDTAVNYCATAVYSRYSPYAGYYYWGQGTQVTVSS | low polyreactivity |
| QVQLVESGGGSVQAGGSLRLCCAASGRILESYAMGWYRQAPGKERELVAAINSGASTYYADSVKGRFTISRDNAKNTVYLPMNSLKPEDTAVYYCAADYRYGAYDDWGQGTQVTVSS | low polyreactivity |
| QVQLVESGGGSVQAGGSLRLSCAASGIIFWYYTMGWYRQATGKERELVAAISWSSGITYYADSLKGRFTISRDNAKNTVYLQMNSLKPEDTAVYYCSAGYYKGFTLVRVIFDYWGQGTQVTVSS | low polyreactivity |
| QVQLVESGGGSVQAGGSLRLSCAASGITSYGYAMGWYRQAPGKERDLVASISRTGGNTYADSVKGRFTISRDNAKNTVYLQMNSLKPEDTAVYYCNAGRSWDYWYGYDYWGQGTQVTVSS | low polyreactivity |
| QVQLVESGGGSVQAGGSLRLSCAASGRTFVRYAMGWYRQAPGKERELVAAITWSGGSTYYADSVKGRFTISRDNAKNTVYLQMNSLKPEDTAVFNCADYPVQWGSLYDYWGQGTQVTVSS | high polyreactivity |
| QVQLVESGGGSVQAGGSLRLSCAASGSTIRYYAMGWYRQAPGKERELVARITSRAGRTYYADSVKGRFTISRDNAKNTVYLQMNSLKPEDTAVYYCNTRDFSGYVHALSLYDYWGQGTQVTVSS | high polyreactivity |
| QVQLVESGGGSVQAGGSLRLSCAASGYIFGVYAMGWYRQAPGKERELVAAISSGGSTNYADSVKGRFTISRDNAKNTVYLQMNSLKPEDTAVYYCNADYIFYYEYDYWGQGTQVTVSS | low polyreactivity |

| Sequence | polyreactivity (PSR sort gate) |
| --- | --- |
| QVQLVESGGGVGQAGGSLRLSCAASGLSCVDYAMGWYRQAPGKERELVAAISTTGGSTYYADSVKGRFTISRDNAKNTVYLQMKSLKPEDTAVYYCNARFVHHSWGTNYYWGQGTQVTVSS | high polyreactivity |
| QVQLVESGGGVVQAGGSLRFSCAASGSIFPGYAMGWYRQAPGKEREMVATITWSGGTTYYADSVKGRFTISRDYAKNTVYFQMNSLKPEDTAVYYCNATFGYPFLDYDDYWGQGTQVNVSS | low polyreactivity |
| QVQLVESGGGVVQAGGSLRISCAASRLIFRRNAMGWYGQAPGKERELVAAISRTGGSTYDADSVKGRFTISRDNAKNPVYLQRNSLIPEDTAVYYCATDTRDYDYTDEYWGHGTQVTVSS | low polyreactivity |
| QVQLVESGGGVVQAGGSLRLSCAASGFIFSYNVMVWYRQAPGKERELVAAISSSGGSTYYADSVKGRFTISRDNAKNTAYLQMNSLKPEDTAVYYCATRVSRSFRAYDYWGQGTQVTVSS | high polyreactivity |
| QVQLVESGGGVVQAGGSLRLSCAASGFIYRWNAMGLNRQAPGKERELVAAMSARGGSTYDADSVKGRFTIARDNAKNTVYLPMNSLKPEDTAVYYCARAKRVHTEYDYWGQGTQVTVSS | high polyreactivity |
| QVQLVESGGGVVQAGGSLRLSCAASGITFNGNAMGWYRQAPGKERELVATISRSDGRTYYADSVKGRFTISRDNAKNTDYFQMNSLKPEDTAVYYCAAYTTRPYWGQGTQVTVSS | high polyreactivity |
| QVQLVESGGGVVQAGGSLRLSCAASGLIFRRYAMGWYRQAPGIERELVAAISGNGGSTYYADSVKGRFTISRDKAKNTVYVQMNCLKPEDTAVYYCAARSLGIYNYWGQGTQVTVSS | high polyreactivity |
| QVQLVESGGGVVQAGGSLRLSCAASGRICAYYTMGWYRQAPGKERELVAAINQSGGSTYYADSVKGRFTISRDNAKYTEYLQMNSLKPEDTAVFYCAAQPTIYSTPHPEYNYWGQGTQVNVSS | low polyreactivity |
| QVQLVESGGGVVQAGGSLRLSCAASGRIFARYTMGWYRQAPGKEREFVAGIRSSGGRTYYADSVKGRFTISRDTAKNTVYLQMNSLKPEDSAVYYCNAGGSWYFARYDYWGEGTQVTVSS | low polyreactivity |
| QVQLVESGGGVVQAGGSLRLSCAASGRIFVYYMGWYRQAPGKERVLVAAISVGGGSTYYADSVKGRFTISRDHAKNTVYLQMNSLKPEDTAVYYCAAAWSNYFGDPSYYWGQGTQVTVSS | low polyreactivity |
| QVQLVESGGGVVQAGGSLRLSCAASGRIFYYNARGWYRQAPGKERELVAVISRNGGRTYYADSVKGRFTISRDNAKITVYLQMNSLKPEDTAVYYCAARSAGDRYDYWGQGTQVTVSS | high polyreactivity |
| QVQLVESGGGVVQAGGSLRLSCAASGRINARYAMGWYRQAPGKERELVAAITSGGGTYYADSVKGRFTISRDNAKNTVYLQMNSLKPEDTAVYYCAARWLSRGYEYYYWGQGTQVTVSS | high polyreactivity |
| QVQLVESGGGVVQAGGSLRLSCAASGRTFKPYAMGWYRQAPGKERELVAAISSGVSTHYADSVKGRFTISRDNAKNTVYLQMNSLKPEDTAVYYCAADYWVNYWFDYWGQGTQVTVSS | low polyreactivity |
| QVQLVESGGGVVQAGGSLRLSCAASGRTFMVNAMGWYRQAPGKERELVAAISQRGGSTDYADSVKGRFTISRDNAKNTVYLQMNSLIPEDTAVYYCAADSLRGSAPTYYSTLEYWGQGTQVTVSS | low polyreactivity |
| QVQLVESGGGVVQAGGSLRLSCAASGRTFSYNALGWNRQAPGKEREVVAAINGDGGSTYYADSVKGRFTSSRDNAKNTVYLQMNSLKPEDTAVYYCNRRGIYRYGYWGQGTEVTVSS | high polyreactivity |
| QVQLVESGGGVVQAGGSLRLSCAASGSIFLYIYAKGWYRHAPGKERELVATINWDGGSTYYADSVKGRFTISRDNAKNTVYLQMNSLKPEDTAVYYCAADWYYSYYFYRFDYWGQGTQVTVSS | low polyreactivity |

Source: the nanobody polyreactivity screen of Harvey et al. (2022)
